Test: label from the status in PepcDB records
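Also: failed if final PepcDB status was selected cloned or expressed and not failed if soluble or beyond.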

Sequence	protein production
MCYASMEMSAPIRFGTEGFRGVIAREFTFATLHRLAEAYGRHLLERGGGLVVVGHDTRFLADAFARALSGHLAGMGLKVVLLKGPVPTPLLSFAVRHLKAAGGAMLTASHNPPQYLGVKFKDATGGPIAQEEAKAIEALVPEEARALEGAYETLDLREAYFEALKAHLDLKALSGFSGVLYHDSMGGAGAGFLKGFLRHVGLEIPVRPIREEPHPLFHGVNPEPIPKNLGVTLAVLGPETPPSFAVATDGDADRVGVVLPGGVFFNPHQVLTTLALYRFRKGHRGRAVKNFAVTWLLDRLGERLGFGVTTTPVGFKWIKEEFLKGDCFIGGEESGGVGYPEHLPERDGILTSLLLLESVAATGKDLAEQFKEVEALTGLTHAYDRLDLPLKAPLDLTPFREPRPLAGLTPKGVDTLDGVKWLYEEAWVLFRASGTEPVVRIYVEAQSPELVRALLEEARKLVEG	not failed
MDAAHRHGVPVLGNIFLPPVAYGGQLQWTRDLVQKDATGHYPLAAQLVAVADAYGFDGWFVNAETSGGNTALATDMRGFLQELKALGTAKGQRVTWYDSMTATGSVSWQGALNSQNQAFFQAADSMFVDFRWSKSTLASSGTLAGQLGRSRYELWAGVDVESNGTSTSVNWDAIVPSASAHVVSLGFYRPEWTRNHLPANRTPGDFHAADDLFWTGASLDPAKPNTTASWRAPALRVADRSTVDSLPFATVFNTGHGLKWYEGGEVTSDTAWNHLGLQDRLPSRRWIVRTSGARPSVTFDFADAWRGGSSVLVAGTLGAPATLDLYETRLPVGSSETVVELTHRTDAGSAQIELAVATAEPSAPGQAPSYTYFPVSSGDGWGTSTVRLTGLSGTVRTLAVRLTGSGSPVRWRLGALAVKNAPAEPAAPTGLRVTDADGGSLRFSWQPAAGEVRHYELHRVLADGTRRFLGGTCQCAYYVAGLAAEQGESAARFELRAVGELYTESTATTTTHPW	failed
MDAKEVSAHWESNAETWTMLSRAGHDRYRDTLNTPAFLAMLPPVAGLKGLDLGCGEGTNTRTVARLGASMTGLDIAPTFLRHARDAERRDPLGIDYVLGDGLTLPFADRSFDFVTAFMSMMDMVDQAAVLREVARVLKPGGFLQFSILHPCFVPPTRRNIRDAEGAPVAVEVADYFDESDGRVERWLFSSISAEQQAALTPFAVPRFHRTLSTWVAMIVGARLSIEAFGEPRASEEVAAAEPIVADTRVAPIFLHVLAKRPTTP	failed
MDAMKYHDLRDFLTLLEQQGELKRITLPVDPHLEITEIADRTLRAGGPALLFENPKGYAMPVLCNLFGTPKRVAMGMGQDDVSALREVGKLLAFLKEPEPPKGFRDLFDKLPQFKQVLNMPTKRLRGAPCQQKIASGDDVDLTRLPVMTCWPDDAAPLITWGLTVTRGPHKERQNLGIYRQQLIGKNKLIMRWLSHRGGALDFQEWLAARPGERFPVSVALGADPATILGAVTPVPDTLSEYAFAGLLRGTKTEVVKCLSNDLEVPASAEIILEGYIEPGEMAPEGPYGDHTGYYNEVDSFPVFTVTHITQREDAIYHSTYTGRPPDEPAVLGVALNEVFVPILQKQFPEIVDFYLPPEGCSYRLAVVTMKKQYAGHAKRVMMGVWSFLRQFMYTKFVIVCDDDVNARDWNDVIWAITTRMDPARDTVLVENTPIDYLDFASPVSGLGSKMGLDATNKWPGETQREWGRPIVKDPEVTARIDAIWDELAIFKLEHHHHHH	not failed
MDAPGPKPLRVARYWLYTGEHPARTTEVPVWNKLCLSVCCAILVLTASSCGADKSSDFLTEGRKLMDAGNAAGAVVLFRNALEKTPADYTLHLELGRAYIALGKLDLAEGELQKCLRQQPDDPPLNLALGELYVARNEPAKALPHLARYEQGAGETAVSRELAGLAHAQARSPEEARAALERSIALDAKRVTPRLALARLFLYRGDLKRAVATVDEALAVAPEDRLALTLRGDLLLRQGDAPGALVVFRKVASLAPGDDYARYMSGLLALQTGDEAGAAAVAASMNKDFKDNSLTLMLDGALAAQRKDYTLAASLFQRSVAMRPSLEGYYKLGMALYGKGDLETALSQFNRVLEATPEYDAARRMTVTILLAQRRVAEARQEAQKLVERNPSDAAAHFMLASAQMAAGDRAGAERSFEAGLALQPAHVPALLQLSRLKQADGRPDEALEDLKAAVVAAPDDLAVRNALFAYHLGRGDTGKGVQVVLEGLRGTPQDAILYTMLVPVYVNMGDEAKGLDAVAQAHRADPDFPDAYLAGLRLHAGAGRAEQALAESEAYLARKPDAPGFLLASGALLDLLGRTAEADARFDKALAANDPRVSFAVAERAVASGQDEKARRVLEEALRQHDQTTLRDALAIQLARMGKPDDALALYTAIETQRPREALLGRYRLLTHLDRHQEAADTARELGRRESASPLPVLLEAAAFERMGQRPQGVALLEAAHRKSGDPELLLAMGGMLERNGDEARAETCYRDALKARPDHVPTLLAYAGLDMRRKEYAKATALYEKAVSIAPDDVVALNNLAMAYLEKASRDATPQKALRLALQAYTRAPDNPAVLDTLGVCMMANGRADDAARAFGRAVVAVPGNPSLRYRHAEALFKAGRKDMAAEELRAALQTPDFPEAAKARDLLRKTGN	failed
MDATMHLFREKSSIGRLNLARVGLLDCIFGVRLNVEYKKTVEIFDCAGHNHRSGGIRNHRPTNSQGNSHKIKWKNLLLAPYTLVHVLVPPDLNKTCCDCGVYALKYIECHFMGLSLDMLDDVNIKDARLRIAVDLWKAAFDPVFIDRMTKYKPPKINSEIIDINLSVKLLKLNLIDNILEGPLSESITRSKTLLELDNMLEPNCI	failed
MDCRLKCTNQCTSLMMAFDKSHTIKGCSTEFSLSMTDTPILGTVKEPQRDYRTLDRQKLTPMFQHYTEVKEQYQGALLLYRVGDFFECFFQDAVIIARELELILTSKEGGKEIGRVAMTGVPHHALDRYARQLVEKGYAVAICDQVEDAAEAQAEKRMVERQVTKLLTPGTLTDDSMLPAKRNNFLAAIAMVEDKWGLAHADISTGEFFTCQSSNLDDLAVELLRLQPSEVLIPTSAPDIRNILRPGEPSEHIPKQLPTSFCYSLRSQAPFSLVEAKQRLLTTFRVKSLEGMGCEGLPLAIRAAGGLLEYIEDTQKAHVVPIQPLKTYGLTDFLVLDHQTRRNLEINQTVRDGSFHGSLLWALDRTSTTMGSRALRRWLLQPLLDLKGIQARQDTIQELYHHPALRQDLRQLLRQIYDLERLTGRIGANTASARDVYGLASSLVRLTDLAELAQEGHSPYLKALQTVPPELEELGKYVLAHIVENPPLHIREGNLIRSGVNPTLDEMRQSLEDDNQWLANLEVTEREKTGIANLKVGYNKAFGYYLSLPRSKSEQAPDNYIRKQTLVNEERYITPELKERETRILTAQADLNQLEYEIFTEVRATVAEKAQPIRDVAKAVAAIDVLAGLAEVAVYQGYCRPIMQMEPGLIDIEAGRHPVVEQSLGAGFFVANDTQLGHDHWHPDLVILTGPNASGKSCYLRQVGLIQLMAQTGSFIPAKTATLSICDRIFTRVGAVDDLATGQSTFMVEMNETANILNHATAKSLVLLDEIGRGTATFDGLAIAWSVAEYLAGEIQARTIFATHYHELNELASLLENVANFQVTVKELPEEIIFLHQVTPGGADKSYGIEAGRLAGLPSSVITRARQVMAQIEKHSKIAVGLRKGNRGKVMASQAAAEAAEDQAKQLDIFGF	failed
MDDGNENISMEVVEPEDAESDMSSDSGSDAEDDTAEPKAPKEVYLPGTKLADDEELVCDESAYVMLHQASTGAPCLSFDVIPDELGSGRQSFPMTAYIVAGTQASRAHVNNLIVMKMSNLHKTQDNDGDEDEELEDDQDDVTDREELKKPQMTCALVKHQGCVNRVRARRLGNSVYAASWSELGRVNIWDLTQPLQAVENAQLAKQYEQSEARPVFTFGGHQQEGFAIDWSPSADGVLATGDCRRDIHVWTPVEDGTWKVDQRPLAGHSQSVEDLQWSPNERSVLASCSVDKTIRIWDCRASPQKACMLTCEDAHQSDVNVISWNRNEPFIASGGDDGYLHIWDLRQFQSKKPIATFKHHTDHITTVEWSPAEATVLASGGDDDQIALWDLAVEKDIDQAVDPAQNEDVLNKLPPQLLFIHQGQKEIKELHWHPQLPGVLLSTAHSGFNIFRTISV	failed
MDDNTKELEQYWDEFSQEYEEIQNESLVDIGQQLKEFLLAEKLLPTSQFLDLAGGTGKYIPHFSNFTDSYHLVDLSAKMLEFAKNKSADSNKITFTHQEQNKFLKNTKENTYDFVFSAMNPALESKEALVELNRIANGNVGILRLIFDEDNLFSQVEQLYLPNQEQNKEAQMLLYKVWLEELGWEFKSKKFRFFLSEKVSSQFFSDYFSDELSNAELAALTQLFFSETEIREMERLVIFELLYWEKC	failed
MDEEIDTRKINNSFLRDHNYATEADIISTVEFNPTGELLATGDKGGRVVVFQREQESKNQPHRRGEYNVYSTLLKDWIMLIKTHRKNFRRKGKQLGFKCGSIY	failed

— a protein production outcome set (Wang et al. 2014)
